Test results as given in patent US20240392271, “ENGINEERED CASX REPRESSOR SYSTEMS” (Scribe Therapeutics Inc., published 2024).

Key:
Test in all cases: cell_activity; PAM TTC; day 50
ELXR2-ZIM3 (#2.A) = molecular target: T1, ELXR2-ZIM3 (#2.A) (synthetic construct); conditions: tags: DNMT3A CD, DNMT3L ID, ZIM3 KRAB fusion, NLS
T1 chain: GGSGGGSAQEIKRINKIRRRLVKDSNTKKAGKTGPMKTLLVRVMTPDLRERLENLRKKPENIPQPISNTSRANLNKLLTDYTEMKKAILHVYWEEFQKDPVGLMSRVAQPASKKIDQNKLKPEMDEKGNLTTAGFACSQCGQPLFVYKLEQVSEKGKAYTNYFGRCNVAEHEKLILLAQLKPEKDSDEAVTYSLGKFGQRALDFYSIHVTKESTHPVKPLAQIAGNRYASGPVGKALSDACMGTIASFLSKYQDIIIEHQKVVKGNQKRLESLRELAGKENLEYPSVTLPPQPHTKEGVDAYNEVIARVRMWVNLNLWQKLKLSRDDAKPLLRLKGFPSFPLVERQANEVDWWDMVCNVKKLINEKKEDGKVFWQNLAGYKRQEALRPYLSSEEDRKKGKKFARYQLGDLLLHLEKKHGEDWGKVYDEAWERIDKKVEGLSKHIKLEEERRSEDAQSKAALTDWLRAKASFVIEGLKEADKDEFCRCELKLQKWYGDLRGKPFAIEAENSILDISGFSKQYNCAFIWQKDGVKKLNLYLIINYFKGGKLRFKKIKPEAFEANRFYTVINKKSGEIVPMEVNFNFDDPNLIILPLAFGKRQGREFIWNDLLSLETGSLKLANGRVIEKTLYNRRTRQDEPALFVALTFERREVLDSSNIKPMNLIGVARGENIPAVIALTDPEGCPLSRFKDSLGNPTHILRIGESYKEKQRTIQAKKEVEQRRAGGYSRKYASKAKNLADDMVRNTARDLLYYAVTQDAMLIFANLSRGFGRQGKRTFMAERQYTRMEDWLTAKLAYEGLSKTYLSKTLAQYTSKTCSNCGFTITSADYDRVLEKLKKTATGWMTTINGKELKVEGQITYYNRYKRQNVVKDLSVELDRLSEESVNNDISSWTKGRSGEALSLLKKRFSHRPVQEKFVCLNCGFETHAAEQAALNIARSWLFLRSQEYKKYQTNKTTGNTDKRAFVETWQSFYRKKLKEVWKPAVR

ELXR1-ZIM3 (#1.A) = molecular target: T2, ELXR1-ZIM3 (#1.A) (synthetic construct); conditions: tags: DNMT3A CD, DNMT3L ID, ZIM3 KRAB fusion, NLS
T2 chain: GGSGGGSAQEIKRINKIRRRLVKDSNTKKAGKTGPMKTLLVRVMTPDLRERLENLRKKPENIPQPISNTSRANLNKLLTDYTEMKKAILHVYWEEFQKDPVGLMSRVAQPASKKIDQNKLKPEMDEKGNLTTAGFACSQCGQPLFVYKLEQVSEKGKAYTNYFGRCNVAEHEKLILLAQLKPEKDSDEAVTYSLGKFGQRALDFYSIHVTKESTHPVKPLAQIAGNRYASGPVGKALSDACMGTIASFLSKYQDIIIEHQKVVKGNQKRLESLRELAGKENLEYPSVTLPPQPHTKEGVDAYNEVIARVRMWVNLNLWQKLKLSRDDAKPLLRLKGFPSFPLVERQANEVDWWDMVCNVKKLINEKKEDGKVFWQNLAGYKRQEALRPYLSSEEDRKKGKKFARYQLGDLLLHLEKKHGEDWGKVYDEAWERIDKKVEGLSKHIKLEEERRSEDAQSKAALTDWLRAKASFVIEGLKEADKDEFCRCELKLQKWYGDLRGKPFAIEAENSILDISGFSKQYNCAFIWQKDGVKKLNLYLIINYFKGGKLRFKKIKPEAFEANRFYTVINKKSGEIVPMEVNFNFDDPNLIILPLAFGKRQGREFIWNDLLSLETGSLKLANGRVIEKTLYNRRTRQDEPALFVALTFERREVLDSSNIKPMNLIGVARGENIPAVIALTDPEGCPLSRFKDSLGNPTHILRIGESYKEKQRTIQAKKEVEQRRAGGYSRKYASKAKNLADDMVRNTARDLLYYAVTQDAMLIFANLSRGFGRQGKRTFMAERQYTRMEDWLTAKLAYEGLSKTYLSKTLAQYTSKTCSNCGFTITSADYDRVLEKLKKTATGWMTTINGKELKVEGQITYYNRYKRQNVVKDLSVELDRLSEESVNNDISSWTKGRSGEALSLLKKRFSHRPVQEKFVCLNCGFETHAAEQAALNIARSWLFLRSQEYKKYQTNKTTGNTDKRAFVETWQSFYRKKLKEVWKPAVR

ELXR3-ZNF10 (#3.B) = molecular target: T3, ELXR3-ZNF10 (#3.B) (synthetic construct); conditions: tags: DNMT3A CD, DNMT3L ID, ZNF10 KRAB fusion, NLS
T3 chain: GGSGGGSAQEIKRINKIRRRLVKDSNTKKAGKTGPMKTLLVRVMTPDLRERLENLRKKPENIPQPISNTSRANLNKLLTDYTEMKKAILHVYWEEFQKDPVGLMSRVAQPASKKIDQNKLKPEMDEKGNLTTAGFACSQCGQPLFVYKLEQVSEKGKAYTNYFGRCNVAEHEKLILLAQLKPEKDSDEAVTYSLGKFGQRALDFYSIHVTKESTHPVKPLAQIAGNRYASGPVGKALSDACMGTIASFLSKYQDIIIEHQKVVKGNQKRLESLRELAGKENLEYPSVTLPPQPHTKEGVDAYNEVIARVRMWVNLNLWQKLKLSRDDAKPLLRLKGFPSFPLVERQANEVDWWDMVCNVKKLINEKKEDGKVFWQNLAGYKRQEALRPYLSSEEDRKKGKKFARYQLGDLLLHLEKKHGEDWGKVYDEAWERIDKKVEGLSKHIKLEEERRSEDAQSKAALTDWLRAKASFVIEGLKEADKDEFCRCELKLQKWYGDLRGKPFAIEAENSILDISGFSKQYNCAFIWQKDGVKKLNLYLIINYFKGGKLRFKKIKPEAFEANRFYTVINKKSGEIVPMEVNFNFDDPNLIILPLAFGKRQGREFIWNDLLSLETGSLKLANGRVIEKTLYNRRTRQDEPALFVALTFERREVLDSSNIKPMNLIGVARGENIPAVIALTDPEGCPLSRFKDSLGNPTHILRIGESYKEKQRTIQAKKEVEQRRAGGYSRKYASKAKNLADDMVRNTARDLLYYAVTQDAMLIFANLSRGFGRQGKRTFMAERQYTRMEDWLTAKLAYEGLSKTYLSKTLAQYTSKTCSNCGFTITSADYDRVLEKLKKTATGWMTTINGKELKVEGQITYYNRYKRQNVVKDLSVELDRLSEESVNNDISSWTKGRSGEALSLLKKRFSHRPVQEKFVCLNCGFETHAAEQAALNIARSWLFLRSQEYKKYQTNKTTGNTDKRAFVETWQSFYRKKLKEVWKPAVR

ELXR2-ZNF10 (#2.B) = molecular target: T4, ELXR2-ZNF10 (#2.B) (synthetic construct); conditions: tags: DNMT3A CD, DNMT3L ID, ZNF10 KRAB fusion, NLS
T4 chain: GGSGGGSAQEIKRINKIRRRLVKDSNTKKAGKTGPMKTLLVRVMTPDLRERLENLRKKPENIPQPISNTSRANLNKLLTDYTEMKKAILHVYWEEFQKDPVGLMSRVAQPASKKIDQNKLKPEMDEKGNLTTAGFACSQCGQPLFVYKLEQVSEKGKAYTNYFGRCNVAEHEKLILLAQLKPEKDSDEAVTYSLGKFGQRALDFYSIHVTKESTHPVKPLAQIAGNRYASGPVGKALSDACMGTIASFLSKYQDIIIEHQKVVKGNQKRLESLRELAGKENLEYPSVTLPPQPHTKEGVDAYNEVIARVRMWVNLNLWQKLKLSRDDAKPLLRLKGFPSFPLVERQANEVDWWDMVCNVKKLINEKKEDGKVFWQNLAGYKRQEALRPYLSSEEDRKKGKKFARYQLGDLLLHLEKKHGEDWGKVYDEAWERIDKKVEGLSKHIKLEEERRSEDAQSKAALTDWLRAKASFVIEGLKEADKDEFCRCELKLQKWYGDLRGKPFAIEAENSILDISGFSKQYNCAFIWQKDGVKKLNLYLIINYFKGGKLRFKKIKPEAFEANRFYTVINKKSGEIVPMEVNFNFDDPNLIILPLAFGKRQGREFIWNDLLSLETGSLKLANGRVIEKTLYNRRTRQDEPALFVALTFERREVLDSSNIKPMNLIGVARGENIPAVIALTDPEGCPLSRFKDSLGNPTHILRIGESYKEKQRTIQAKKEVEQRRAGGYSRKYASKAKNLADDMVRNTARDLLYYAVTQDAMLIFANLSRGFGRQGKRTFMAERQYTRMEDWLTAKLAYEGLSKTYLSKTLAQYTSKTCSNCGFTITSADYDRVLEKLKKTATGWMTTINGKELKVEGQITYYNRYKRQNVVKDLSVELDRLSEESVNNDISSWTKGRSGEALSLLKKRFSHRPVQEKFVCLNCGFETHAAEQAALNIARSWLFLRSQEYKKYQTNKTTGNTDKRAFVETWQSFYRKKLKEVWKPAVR

ELXR1-ZNF10 (#1.B) = molecular target: T5, ELXR1-ZNF10 (#1.B) (synthetic construct); conditions: tags: DNMT3A CD, DNMT3L ID, ZNF10 KRAB fusion, NLS
T5 chain: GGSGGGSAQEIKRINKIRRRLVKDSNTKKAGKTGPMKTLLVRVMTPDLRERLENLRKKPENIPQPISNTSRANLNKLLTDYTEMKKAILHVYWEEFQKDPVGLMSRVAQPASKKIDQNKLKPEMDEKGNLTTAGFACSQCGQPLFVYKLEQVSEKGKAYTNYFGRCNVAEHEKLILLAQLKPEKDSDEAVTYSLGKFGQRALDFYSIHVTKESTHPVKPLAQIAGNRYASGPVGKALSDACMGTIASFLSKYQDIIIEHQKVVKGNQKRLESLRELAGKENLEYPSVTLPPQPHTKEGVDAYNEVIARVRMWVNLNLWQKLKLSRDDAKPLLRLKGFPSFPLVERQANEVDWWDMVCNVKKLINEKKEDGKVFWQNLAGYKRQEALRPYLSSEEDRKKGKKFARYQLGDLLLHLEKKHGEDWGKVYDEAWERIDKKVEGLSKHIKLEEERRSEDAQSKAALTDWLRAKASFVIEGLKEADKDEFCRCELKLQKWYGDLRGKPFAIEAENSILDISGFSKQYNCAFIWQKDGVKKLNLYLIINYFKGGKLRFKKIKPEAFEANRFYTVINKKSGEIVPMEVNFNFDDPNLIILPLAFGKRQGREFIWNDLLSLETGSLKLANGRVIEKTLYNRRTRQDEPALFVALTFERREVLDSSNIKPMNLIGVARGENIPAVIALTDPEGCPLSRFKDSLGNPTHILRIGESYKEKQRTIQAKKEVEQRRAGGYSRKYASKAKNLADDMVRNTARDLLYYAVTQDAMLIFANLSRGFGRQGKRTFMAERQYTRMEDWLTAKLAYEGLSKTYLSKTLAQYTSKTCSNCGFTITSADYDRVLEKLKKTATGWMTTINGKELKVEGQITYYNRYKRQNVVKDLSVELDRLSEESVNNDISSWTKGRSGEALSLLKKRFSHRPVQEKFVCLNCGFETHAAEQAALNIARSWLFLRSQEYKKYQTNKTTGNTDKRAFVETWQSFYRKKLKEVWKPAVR

B1: gRNA scaffold 174 + spacer 7.37 ; B2M target 7.37 (ssRNA ; dsDNA)
RNA: ACUGGCGCUUUUAUCUGAUUACUUUGAGAGCCAUCACCAGCGACUAUGUCGUAGUGGGUAAAGCUCCCUCUUCGGAGGGAGCAUCAAAGGGCCGAGAUGUCUCGCUCCG
DNA 1: GGCCGAGATGTCTCGCTCCG
DNA 2: CGGAGCGAGACATCTCGGCC
- activity (ELXR2-ZIM3 (#2.A)): 58.8 % HLA-negative cells
- activity (ELXR1-ZIM3 (#1.A)): 73.7 % HLA-negative cells
- activity (ELXR3-ZNF10 (#3.B)): 17.1 % HLA-negative cells
- activity (ELXR2-ZNF10 (#2.B)): 36.9 % HLA-negative cells
- activity (ELXR1-ZNF10 (#1.B)): 70 % HLA-negative cells
